From publication PMC3794917

System: Rad51
Assay: EM
Settings: RPA pre-bound to ssDNA, no Rad52, 60 mM NaCl; all filaments complete; Rad52 EMSA: 10 mM Tris-HCl pH 8, 5 mM MgCl2, 100 mM NaCl, 37 C, 10 min, 0.27 uM XV2, 8% native PAGE; filament assays: SEB buffer, 60 mM NaCl (or titrated) …

400-nt ssDNA fragment
binding signal (% of Rad51 filaments formed): 12.5
